Experimental data from the supplement of paper PMC12042874.
± gives the uncertainty stated by the source.

Assay: amyloid nucleation score (Sup35N fusion, yeast selection) (log enrichment); library NNK1; higher = more nucleation; inactive = no reads after selection
In short: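 On medium lacking adenine and uracil, psi-negative yeast expressing peptides of 20 random codons fused to Sup35N were grown 7 days at 30°C after a 24-hour induction with 100 μM copper sulfate. Illumina sequencing of input and output plasmid inserts gave the reads, and sequences under 100 input reads were excluded. The nucleation score is the DiMSum log enrichment of output over input reads, centred on the mode score of non-aggregating sequences.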

Row | Substance | amyloid nucleation score
1 | MNDVNLFMEYNKSFYVDFYM | 1.61 ± 0.15
2 | DGSSLSPDPSLVWLKDM | -0.823 ± 0.55
3 | LPYNHTQTVMDFIYFVFWLL | 0.698 ± 0.24
4 | KLFSK | inactive
5 | NADDISVRTGNTQESLSW | 0.275 ± 1.2
6 | IFVVGAGLHDKTNGYVYRSR | 0.164 ± 0.24
7 | CFVMLFDRYVNLLIGNQLWY | 0.145 ± 0.35
8 | TGSLVFLTLTLLLVCYLPIT | 0.302 ± 0.43
9 | LNVTQYVKGSEWKWGSTTSP | 0.176 ± 0.52
10 | GNLLRTSIDRLLYSWSTIVV | -0.187 ± 0.46
11 | TGRAPSVLHNKR | -0.842 ± 0.64
12 | RLCFRASRETFLCNRFNY | inactive
13 | VPNVGYI | 0.369 ± 0.54
14 | MGGRSPMELAISRVVVVVKW | inactive
15 | FLFACFMRVAL | 1.46 ± 0.24
16 | FLVWIMGSFPTGRGANRRNS | -0.465 ± 0.51
17 | LWVSNSSIRLDRNINQTLAT | 0.019 ± 1.4
18 | RLCRYLKYRYG | 0.839 ± 1.1
19 | LYSGFNRSKRSAVNSICAH | 0.368 ± 0.18
20 | AYSRNYYQYAVNEFGDVVFE | 0.312 ± 1.1
21 | NYNQGRGYRSVSSNIIEGDK | 1.74 ± 0.49
22 | YYMRGTKRRIVRVYFWMLRC | 1.59 ± 0.4

Row | Substance | amyloid nucleation score
23 | NDYFY | -0.598 ± 1.4
24 | NRAMQVFPI | inactive
25 | FRDFWLDNVLNMMVGCAARD | -0.692 ± 1.2
26 | LKYFYR | 0.44 ± 0.34
27 | NVGSLVHAAW | -0.613 ± 1.3
28 | TFTCMPLLWLIFS | 6.029 ± 0.057
29 | SLDRYIREHK | 0.635 ± 0.84
30 | KTHQLTSRTEWLYGVGVSAQ | -1.78 ± 2.4
31 | DYDGWQLPMCNNITMTWKVC | 2.7 ± 0.12
32 | LFWNFRRTGAGLAAGLVVGL | -0.885 ± 1.4
33 | FNRCMFHFGDEVVKELL | -0.376 ± 0.91
34 | SYSYDARNCNNTRDGNYNFL | -1.99 ± 1.1
35 | CLRLVQEFTFMYTVVHGARC | 1.13 ± 0.71
36 | RSQCQAGCELYGFA | -0.303 ± 0.78
37 | FGLRFAHAHLINWPWMLSGS | 0.047 ± 0.76
38 | EYLSMNRLRERSYYLGNRTF | 0.077 ± 0.69
39 | QVVPC | -0.153 ± 0.66
40 | LDGTGWYCCQYSGGLYSLCG | -0.073 ± 0.31
41 | NESRM | 1.08 ± 0.58
42 | YDLTSFGFSVIVCSDDTRSG | -0.043 ± 0.75
43 | LRHFCGTFAAVTRKRVYPLS | -0.95 ± 2.7
44 | PFFRVVY | inactive

Row | Substance | amyloid nucleation score
45 | HGIIHFVLQMW | 1.85 ± 0.49
46 | ICGQLPISMGVLSIFWWFES | 0.331 ± 0.79
47 | YLCQRHSFTRSRYHFLLRPV | -1.02 ± 1.2
48 | YKIVIKSGQSAN | -0.252 ± 0.28
49 | LQYSKGYDRVRDPILHTVN | 0.389 ± 0.37
50 | TFMLATDGV | 0.595 ± 0.69
51 | AATGRTVCESREWGKVLAVC | -0.459 ± 0.38
52 | FFLTDITTLHYQSRNRLFLT | -0.581 ± 0.23
53 | NAVSIRGLRVDRQN | 0.112 ± 0.55
54 | CQSVFRGTIHS | -0.235 ± 0.55
55 | MKVIDFVGFPFMGWRKWKTW | -0.063 ± 0.35
56 | CFFILW | -0.066 ± 0.55
57 | RIRVDVEWSARRPG | 2.19 ± 0.17
58 | PLRNGWFLRKLRS | -1.35 ± 1.3
59 | FLACGYMFGFRQSYHRPFRF | 3.35 ± 0.095
60 | ISFYTVRWLAAGRRFLISF | 0.224 ± 0.59
61 | MLNELWVQRWINLSLKYDNQ | 0.957 ± 0.45
62 | VDPAD | 0.553 ± 0.43
63 | APGDWLLSDASAAVGEMVE | 0.778 ± 0.81
64 | FTVLSVVSALQGGRHYPLMG | 0.357 ± 0.33
65 | MEKYYGQLLKDY | 0.224 ± 0.29
